Test results taken from publication PMC10704431, “A complex with poly(A)-binding protein and EWS facilitates the transcriptional function of oncogenic ETS transcription factors in prostate cells” (The Journal of Biological Chemistry, 2023).

Target: T1, His-PABPC1 (UniProt P11940 1-636)
T1 construct: also called purified His-PABPC1; source: E. coli BL21 (pET28a), purified with nickel-nitrilotriacetic acid beads
Experiment: pull-down; purified GST-tagged EWS fragment on glutathione magnetic beads; purified His-tagged protein (PABPC1 or ERG) added, no third protein; immunoblot
Settings: both partners purified

T1 sequence (P11940 whole entry): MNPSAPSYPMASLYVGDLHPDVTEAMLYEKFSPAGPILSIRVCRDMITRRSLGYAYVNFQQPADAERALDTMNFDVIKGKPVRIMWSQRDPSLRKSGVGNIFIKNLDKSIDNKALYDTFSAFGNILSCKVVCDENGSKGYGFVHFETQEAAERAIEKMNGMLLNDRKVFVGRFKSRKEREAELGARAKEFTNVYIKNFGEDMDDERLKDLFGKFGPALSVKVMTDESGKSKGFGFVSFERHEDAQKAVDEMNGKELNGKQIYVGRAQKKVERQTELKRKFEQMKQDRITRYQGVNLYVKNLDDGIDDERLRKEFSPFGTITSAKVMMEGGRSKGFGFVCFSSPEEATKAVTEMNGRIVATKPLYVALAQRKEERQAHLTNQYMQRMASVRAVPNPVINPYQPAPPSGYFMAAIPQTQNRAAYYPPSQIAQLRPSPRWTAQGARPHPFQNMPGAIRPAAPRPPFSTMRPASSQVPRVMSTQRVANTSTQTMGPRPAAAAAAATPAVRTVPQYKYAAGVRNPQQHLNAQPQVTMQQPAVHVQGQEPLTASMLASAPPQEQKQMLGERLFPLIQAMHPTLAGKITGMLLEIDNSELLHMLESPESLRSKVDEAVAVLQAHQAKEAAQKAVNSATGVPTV

B1: GST-EWS 356 to 656 (ctEWS) (domain or fragment, UniProt Q01844 356-656, looked up)
chain: EDSDNSAIYVQGLNDSVTLDDLADFFKQCGVVKMNKRTGQPMIHIYLDKETGKPKGDATVSYEDPPTAKAAVEWFDGKDFQGSKLKVSLARKKPPMNSMRGGLPPREGRGMPPPLRGGPGGPGGPGGPMGRMGGRGGDRGGFPPRGPRGSRGNPSGGGNVQHRAGDWQCPNPGCGNQNFAWRTECNQCKAPKPEGFLPPPFPPPGGDRGRGGPGGMRGGRGGLMDRGGPGGMFRGGRGGDRGGFRGGRGMDRGGFGGGRRGGPGGPPGPLMEQMGGRRGGRGGPGKMDKGEHRQERRDRPY
notes: also called GST-ctEWS; C terminus of EWS; source: E. coli BL21 (pGEX-6p-2), purified with magnetic GSH beads
binding result: binds
